experiment: yeast display, Sf9 membrane polyspecificity reagent, FACS + sequencing; frameworks hold sequencing errors
In short: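 A synthetic nanobody library was expressed on Saccharomyces cerevisiae BJ5465 by galactose induction for 36–48 hours. The library was stained for 1 hour at 4 °C with 10% biotinylated, detergent-solubilized Sf9 membrane reagent and enriched with streptavidin microbeads before FACS. Low and high (top ~1%) gates were set on anti-HA fluorescence for expression and streptavidin fluorescence for reagent binding, and each polyreactivity label reflects the gate of origin.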

Sequence | polyreactivity (PSR sort gate)
QVQLVESGGGLVQAGGSLRLSCAASGGTFLAYAMGWYRQAPGKERELLATITSGGSTNYADSVKGRFTISRDNAKNTVYVQMNSLKPEDTAVYYCAASGRDFIAESPYDYWGQGTQVTVSS | low polyreactivity
QVQLVESGGGLVQAGGSLRLSCAASGSIFRPNVMGWYRQAPGKERELVAAITGSGGSTYYADSVKGRFTISRDNAKNTVYLQMNSLKPEDTAVYYCNARTVSRGRYTYDYWGQGTQVTVSS | low polyreactivity
QVQLVESGGGLVQAGGSLRLSCAASGSILWLNAMGWYRQAPGKERELVADITRGGSTYYADSVKGRFTISRDNAKNTVYLQMNSLKPEDTAVYYCAAKRGKTYQRFDYWGQGTQVTVSS | high polyreactivity
QVQLVESGGGLVQAGGSLRLSCAASGITFYEYAMGWYRQAPGKERELVAAITSGGTTNYADSVKGRFTISRDNAKNTVYLQMNSLKPEDTAVYYCAKDEGEGYDYWGQGTQVTVSS | low polyreactivity
QVQLVESGRGLVQAGGSLRLSCAASGSTISFYAMGWYRQAPGKERELVAAISFRGGRTYYADSVKGRFTISRDNAKNTVYLQMNSLKPEDTAVYYCNAERYYRYWDKQEDYWGQGTHVTVSS | high polyreactivity
QVHLVESGGGLVQAGGSLPLSCAASGRTFIYNTMGWYRPAPGKERELVAAITRNGGSTNYADSVKGRFTISRDNAKNTVYLQMNSLKPEDTAVYYCAAKYIRFARSRDYWGQGTQVTVSS | high polyreactivity
QVQLVESGGGLVQAGGSHRLSCAASGSTFQYYAMGWYRQAPGKERELVAAISKSGGITYYADSVKGRFTISRDYAKYTVYLQMNILKPEDTAVYYCNAYSASGYDYWGQGSQVTVSS | high polyreactivity
QVQLVESGGGLVQAGGSLRLSCAASGFIITSYAMGWYRQAPGKERELVAAIRRTGGTYYADSVKGRFTISRDNAKNTVYLQMNSLKPEDTAVYYCNTRLSYRNRGFDYWGQGTQVTVSS | high polyreactivity
QVQIVESGGGLVQAGGSLRLTCAASGFTLPIYAMGWYRQAPGKEREFVAAITASGDNTYYADSVKGRFTISRDNAKNTVYLQMNSLKPEDTAVYYCAAAHWWIVGYDYWGQGTQVTVSS | low polyreactivity
QVQLVESGGGLVQAGGSLRLSCDASGFTLEKNAMGWYRQAPGKERELVADISSTDSTNYADSVKGRFTISRDNAKNTVYIQMNSLKPEDTAVYYCGRYDGPGTEEFDYWGQGTQVTVSS | low polyreactivity
QVQLVESGGGLVQAGGSLRLSCAASGFTLQGYAMGWYRQAPGKERELVAAIRWIGTSTYYADSVKGRFTISRDNAKNTVYLQMNSLKPEDTAVYYCAAVVRRVRPEGSYNRWGHDYWGQGTQVTVSS | high polyreactivity
QVQLVESGGGLVLAGGSLRLSCAASGRILGSYAMGWYRQAPGKERELVAGISWRGGRTSYADSVKGRFTISRDNAKNPVYLQMNSLKPEDTAVYYCATRSSSRKYGYWGQGTQVTVSS | high polyreactivity
QVQLVESGGGLVQAGGSLRLSCAASGSTFWSYTMGWYRQAPWKERDLVARNTGRGGSTYYADSVKGRFTISRDNEKNTVYLLMNSLKTEDTAVYYCAAGGGRYGFYRFDYWRQGTQVTVSS | low polyreactivity
QVQLVESGGGLVQAGGSLRLSCAASGRTFPRNGMGWYRQAPGTERELVAAISWSGGRTYYADSVKGRFTISRDNAKNTVYLQMNSLKPEDTAVYYCNALYFRKGGYWGQGTQVTVSS | high polyreactivity
QVQLLESGVGLDQAGGSLRLSCAASGSTFNRNAMGWYRQAPGKERELVAAITYSGGSTYYADSVKGRFTISRDNAKNTVYLQMNSLNPEDTAVYYCNAPYAGMGYWGQGTQVTVSS | low polyreactivity
QVQLVESGGGLVQAGGSLRLSCAASGFTFFDNAMGWYRQAPGKERELVAVISSGGRTYYADSVKGRFTISRDNAKNTVYLQMNSLTPEDTAVYYCNAARAQRVKYDYWGQGTQVTVSS | high polyreactivity
QVQLVESGGGLVQAGGSLRLSCADSGSIFQPYAMGWYRQAPGKERELVAAINGRGGSTHYADSVKGRFTISRDNEKNSVYLQMNSLKPEDTAVYDCAARYYRDYRWYTYAYDYWGQGTQVTVSS | high polyreactivity
QVQLVESGGGLVQAGGSLRLSCAASGRTFRGYAMGWYRQAPGKETELVAAISSGGSTYYADSVKGRFTSSRDNAKYTVYLQMNSLKPEDTAVYYCARAVGNYRTLEFDYWGQGTQVTVSS | low polyreactivity
QVQLVESGVGLVQAVGSLRLSCAASGSTFPWYAMGWYRQAPGKERSLVAGSSEGGGSTYYADSVKGRFTISRDNAKNTVYLQMNRLKPEDTAVYYCAADQVGAVYWVGEYGYWGQGTQVTVAS | low polyreactivity
QVQLVESGGGLVQAGGSLRLSCAASGSIFSRNAMGWYRQAPGKERELVAGISTGGSTNYADSVKGRFTISRDNAKNTVYLQMNSLKPEDTAVYYCAAPLAYEGDDWGQGTQLTVSS | low polyreactivity
QVQLVESGGGLVQAGGSLRLSCAASGSIFTVNAMGWYRQARGKERELVAAISSGGSTHYADSVKGRFTISRDNAKNTVYLQMNSLKPEDTAVYYCARDRPGDYAGYDYWGQGTQVTVSS | low polyreactivity
QVQLVESGGGLVQAGGTLRLSCAASGRIFPRNVLGWYRQAPGKEWELVAAISSRGTRTYYADSVKGRFTISRDNAKNTVYLQMNSLKPEDTPVYYCAADGPYEGYDDWGQGTQVTVSS | high polyreactivity

Sequence | polyreactivity (PSR sort gate)
QVHLVESGGGLVQAGGSLRLSCAASGSIIRYYAMGWYRQAPGKERELVAVITRGGSTYYADSVKGRFTISRDNAKSTVYLQMNSLKPEDTAVYYCAADYWPAGLDRGYWGQGTQVTVSS | low polyreactivity
QVQLVESGGGLVQAGGSLRLSCAASGITLYGYTMGWYRQAPGKERELVAGISRGGSTYYADSVKGRFTISRDNAKNSVYLEMNSLKPDVTAVYYCAAAGWYRGDYWGQGTQVTVSS | high polyreactivity
QVQLVESGGGLVQAGGSLRLSCAASGIIFHFNDMGWYRQAPRKERELVAAIDSTGSTNYADSVKGRFTISRDNAKNTVYLQMNSLKPEDTAVYYCAVLNHRVDSVLTRYYYWGQGTQVTVSS | low polyreactivity
QVQLVESGGGLVQAGGSLRLSCAASGGTFGGYAMGWYRQAPGKERELVAVISQSGGTTYYADSVKGRFTISRDNAKNTVYLQMNSLKPEDTAVYYCNAYTYYKRFGYWGQGTQVTVSS | high polyreactivity
QVQLVESGGGLVQAGGSLRLSCAASGFTFWLYAMGSYRQAPGKEREFVAAISTSGGYTYADSVKGRFTISRDNAKNTVYLQMNSLKPEDTAVYYCAVDGLPPKDALHLYYYWGQGTQVTVSS | low polyreactivity
QVQLVESGGGLVQAGGSLRLSCADSGNIFRSYKGWYRQAPGKERELVASISRRGGSTYYADSVKGRFTISRDNAKNTVYLQINSLKPEDSAVYYCARRWSWVNGVFGLYWGQGTQVTLSS | high polyreactivity
QVQLVESGGGLVQAGGSLRLSCAASGRTFAPNAMGWYRQAPGKEREMVAAISWSGTSTYYADSVKGRFTISRDNAKNTVYLQMNSLKPEDTAVYYCAADLEGSVGSPLTYDYWGQGTQVTVSS | low polyreactivity
QVQLVESGGGLVQAGGSLRLSCAASGRTFIEYAMAWYRQAPGKERELVAAISRNDGGSTYYADSVKGRFTISRDNAKNTVYLQMNSLKPEDTAVYYCAARRYISAHVRYGSWGQGTQVTLSS | high polyreactivity
QVQLVESGGCLVQAGGSLPLSCAASGIIFAQYVMGWYIQATGKESELVAAIRTSGGRTYYADSVKGRFTISRDNSKNTVYLQMNSLKPEDTAVYYCAAYGKPTFRSVDYWGQGTQVTVSS | high polyreactivity
QVQLVESGGGLVQAGGSLRLSCAASGSIFSGYAMGWYRQAPGKERELVAAITRSGGRTYYADSVKGRFTISRDNAKNTVYLQMNSLKPEDTAVYYCATLPRYYGYWGQGTQVTVSS | high polyreactivity
QLQLEESGGGLVQAGGTLRISCEASGSTFRPYAMGAYRKAPGQEREMVARITGSGDSTYYADSVKGRFTISRDNAQNTVYLQMNSLKPEDNAVYYCARDFDYSLSGFEYWGQGTQVTVSS | low polyreactivity
QVQLVESCGGLVQAGGSLRLSCAASGIIFGVYALGWYRQAPGKERELVAAIDGNGSSTSYADSVKGRFSISRDNAKNTVYLQINSLKPEDTAVYYCAAGYWYYLYYCYDFDYWGQGTQVTVSS | low polyreactivity
QVQLVESGGGLVQAGGSIRLSCAASGFISYYYAMGWYRQAPGKERELVAAITKSGGSTYYADSVKGRFTISRDNAKNTVYLQMNSLKPEDTAVDYCAAVRSTRNSTSRLYGYWGQGTQVNVSS | low polyreactivity
QVQLVESGGRLVQAGGSLRLSGAASGSTIQTNVMGWYRQAPGKERELLAAISSGGSTNYADSVKGRFTISRDNAKNNVYLQMNSLKPEDTADYYCAKRWPYFRRGKDGYCGQGTQVTVSS | low polyreactivity
QVQLVESGGGLVQAGGSLRLSCAASGSIFGINVMGWYRHAPGKDREFVAAITSGTSTYYADSVKGRFTISRDNAKNSVYLQMNSLKPEDTAVYYCAALWSSRFVVHPQWYDYWGQGTQVTVSS | low polyreactivity
QVQLVESGGGLVQAGGSLRLSCPASGSTIDPNARGWYRQAPGNERELVAAISYTGGRTYYADSVKGRFTISRDNAKNTVYLQMNSLKPEDTAVYYCAVLVVGATTQDEPYFSGVEHDYWGQGTQVTVSS | low polyreactivity
QVQLVESGGGLVQAGGSLRLSCAASGLTLGRNAMGWYRQAPGKERELVAAITQSGGSTYYADSVKGRFTISRDNAKNTVYLQMNSLKAEDTAVYYCAAEVVRQWHGIGYDYWGQGTQVTVSS | low polyreactivity
QVQLVESGGGIVQAGGSLRLSCAASGRIFPHNAMGWDRQAPGKERELVAAITKSGDDTYYADSVKGRFTISRDNAKNTVYLQMNSLKPEDTAVYYCAAYLSWYDYWGQGTQVTVSS | low polyreactivity
QVQLVESGGGLVQAGGSLRLSCAASRSIFRIYAMGWYRQAPGKERELVAGISKSGGSTYYADSVKGRFTISRDNAKNTVYLQMNSLKPEDTAVYYCNAGYNWSGLAVGRYGYDSWGQGTQVTVSS | low polyreactivity
QVQLVESGGGLVQAGGSLRLSCAASGITFAYYAKAWYRQAPGKERELVAAINWSGGSTYYADSVKGRFTISRDNAKNTVYLQMNSLKPEDTAVYYCNAVPRRGYSRRDYWGQGTQVTVSS | high polyreactivity
QVQLVESGGGLVQAGGSLRLSCAASGSTFGNNAMGWYRQAPGKERELVAAITFRGTSTYADSVKGRFTISRDNAKNTVSLQMNSLKPEDTAVYYCAAVVYFVSYRFYYWGQGTQVTVSS | high polyreactivity
